The text below walks through data of paper PMC5030662.

Test [1] has as its target voltage-gated potassium channel KV1.6 (rat) (UniProt P17659).
The target in test [2] is KcsA-KV1.1 hybrid channel. The test is described as follows: competitive binding on spheroplasts by confocal fluorescence microscopy.
Test [3] addresses KcsA-KV1.3 hybrid channel. Described as above.

Several values for one entry are separate records, joined by “and”; a condition that tells them apart may be missing. Equal values may be shown once.

Sequence of UniProt P17659 (P17659 whole entry): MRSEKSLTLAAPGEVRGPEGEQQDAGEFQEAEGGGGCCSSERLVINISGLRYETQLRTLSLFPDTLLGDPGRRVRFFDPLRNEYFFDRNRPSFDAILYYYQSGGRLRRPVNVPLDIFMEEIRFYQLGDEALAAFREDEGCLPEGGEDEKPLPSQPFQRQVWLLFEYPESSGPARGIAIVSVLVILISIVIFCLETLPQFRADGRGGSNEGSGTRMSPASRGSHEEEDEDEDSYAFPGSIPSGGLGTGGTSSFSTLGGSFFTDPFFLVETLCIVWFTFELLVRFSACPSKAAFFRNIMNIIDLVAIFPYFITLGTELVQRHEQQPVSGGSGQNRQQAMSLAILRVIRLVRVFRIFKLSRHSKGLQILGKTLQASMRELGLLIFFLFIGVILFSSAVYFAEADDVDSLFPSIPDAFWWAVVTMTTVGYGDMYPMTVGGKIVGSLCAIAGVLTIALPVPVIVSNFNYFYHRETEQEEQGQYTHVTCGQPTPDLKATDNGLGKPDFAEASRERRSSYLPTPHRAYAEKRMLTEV

As to “OSK1 (from UniProt P55896 1-38) (peptide)”, the IC50 of inhibition of KV1.6 currents, two-electrode voltage clamp in Xenopus oocytes in test [1] came out at 71 nM. For “AgTx2 (from UniProt P46111 1-38) (peptide)”, the IC50 of inhibition of KV1.6 currents, two-electrode voltage clamp in Xenopus oocytes in test [1] is 92 nM. The Kd is the constant that tells how readily two partners part at equilibrium. High values mean a looser complex, low ones a tighter complex. For GVIINVKCKISRQCLEPCKKAGMRFGKCMNGKCHCTPK [OSK1], the Kd is 1.31 nM and 1.42 nM in test [2]; 0.9 nM and 0.7 nM in test [3]. Take GVPINVSCTGSPQCIKPCKDAGMRFGKCMNRKCHCTPK [AgTx2]: the Kd was 0.049 nM and 0.067 nM in test [2]; 0.031 nM and 0.03 nM in test [3].
